In doi:10.1101/2022.10.28.514188 (bioRxiv, 2022):
Where “and” joins values, the source holds several entries; their conditions need not be identical. Equal entries are not always repeated.

Legend:
[1] = biological target: CLPB^isoform1 (isoform-1 of CLPB) (human); test: negative-stain EM + cryo-EM 2D classification
[2] = biological target: CLPB-NBD (NBD-only variant, N-terminal ANK domain truncated) (human) (UniProt Q9H078); test: cryo-EM 2D classification
[3] = biological target: CLPB-NBD^E425Q (human) (UniProt Q9H078); test: cryo-EM structure
[4] = biological target: the molecule itself; test: cryo-EM 2D classification
[5] = biological target: the molecule itself; test: cryo-EM structure
[6] = biological target: the molecule itself; test: SEC + other: negative-stain EM
[7] = biological target: the molecule itself; test: cryo-EM structure; remark: listed apart in the source
[8] = biological target: the molecule itself; test: SEC

Question: Which stoichiometry N [1] does the source give for “CLPB^isoform1 (isoform-1 of CLPB) (enzyme)” here?
Answer: The stoichiometry N was 14.

Question: “CLPB-NBD (NBD-only variant, N-terminal ANK domain truncated) (from UniProt Q9H078-2 1-677) (domain or fragment)” was tested. Which stoichiometry N [2] did it give?
Answer: The stoichiometry N was 6 and 7.

Question: How did the stoichiometry N [3] turn out when “CLPB-NBD^E425Q (from UniProt Q9H078-2 1-677) (domain or fragment)” was run?
Answer: The stoichiometry N was 6 and 7 and 9.

B1: CLPB-N127 (human CLPB isoform 2 starting from the PARL cleavage site), wild type (enzyme)
chain: YSKSPSNKDAALLEAARANNMQEVSRLLSEGADVNAKHRLGWTALMVAAINRNNSVVQVLLAAGADPNLGDDFSSVYKTAKEQGIHSLEVLITREDDFNNRLNNRASFKGCTALHYAVLADDYRTVKELLDGGANPLQRNEMGHTPLDYAREGEVMKLLRTSEAKYQEKQRKREAEERRRFPLEQRLKEHIIGQESAIATVGAAIRRKENGWYDEEHPLVFLFLGSSGIGKTELAKQTAKYMHKDAKKGFIRLDMSEFQERHEVAKFIGSPPGYVGHEEGGQLTKKLKQCPNAVVLFDEVDKAHPDVLTIMLQLFDEGRLTDGKGKTIDCKDAIFIMTSNVASDEIAQHALQLRQEALEMSRNRIAENLGDVQISDKITISKNFKENVIRPILKAHFRRDEFLGRINEIVYFLPFCHSELIQLVNKELNFWAKRAKQRHNITLLWDREVADVLVDGYNVHYGARSIKHEVERRVVNQLAAAYEQDLLPGGCTLRITVEDSDKQLLKSPELPSPQAEKRLPKLRLEIIDKDSKTRRLDIRAPLHPEKVCNTI
Question: B1 was tested. Which “stoichiometry N” value [4] did it give?
Answer: The value was 12.

Question: And the “stoichiometry N” value [5]?
Answer: Its value is 14.

B2: CLPB^R227E (enzyme)
chain: YSKSPSNKDAALLEAARANNMQEVSRLLSEGADVNAKHRLGWTALMVAAINRNNSVVQVLLAAGADPNLGDDFSSVYKTAKEQGIHSLEVLITREDDFNNELNNRASFKGCTALHYAVLADDYRTVKELLDGGANPLQRNEMGHTPLDYAREGEVMKLLRTSEAKYQEKQRKREAEERRRFPLEQRLKEHIIGQESAIATVGAAIRRKENGWYDEEHPLVFLFLGSSGIGKTELAKQTAKYMHKDAKKGFIRLDMSEFQERHEVAKFIGSPPGYVGHEEGGQLTKKLKQCPNAVVLFDEVDKAHPDVLTIMLQLFDEGRLTDGKGKTIDCKDAIFIMTSNVASDEIAQHALQLRQEALEMSRNRIAENLGDVQISDKITISKNFKENVIRPILKAHFRRDEFLGRINEIVYFLPFCHSELIQLVNKELNFWAKRAKQRHNITLLWDREVADVLVDGYNVHYGARSIKHEVERRVVNQLAAAYEQDLLPGGCTLRITVEDSDKQLLKSPELPSPQAEKRLPKLRLEIIDKDSKTRRLDIRAPLHPEKVCNTI
Question: Does B2 bind [6]?
Answer: Result: binds

B3: CLPB^E425Q (Walker B mutant of CLPB-N127, isoform 2) (enzyme)
chain: YSKSPSNKDAALLEAARANNMQEVSRLLSEGADVNAKHRLGWTALMVAAINRNNSVVQVLLAAGADPNLGDDFSSVYKTAKEQGIHSLEVLITREDDFNNRLNNRASFKGCTALHYAVLADDYRTVKELLDGGANPLQRNEMGHTPLDYAREGEVMKLLRTSEAKYQEKQRKREAEERRRFPLEQRLKEHIIGQESAIATVGAAIRRKENGWYDEEHPLVFLFLGSSGIGKTELAKQTAKYMHKDAKKGFIRLDMSEFQERHEVAKFIGSPPGYVGHEEGGQLTKKLKQCPNAVVLFDQVDKAHPDVLTIMLQLFDEGRLTDGKGKTIDCKDAIFIMTSNVASDEIAQHALQLRQEALEMSRNRIAENLGDVQISDKITISKNFKENVIRPILKAHFRRDEFLGRINEIVYFLPFCHSELIQLVNKELNFWAKRAKQRHNITLLWDREVADVLVDGYNVHYGARSIKHEVERRVVNQLAAAYEQDLLPGGCTLRITVEDSDKQLLKSPELPSPQAEKRLPKLRLEIIDKDSKTRRLDIRAPLHPEKVCNTI
Question: For B3, which “stoichiometry N” value [7] is on record?
Answer: The value was 12.

B4: CLPB^R178E (enzyme)
chain: YSKSPSNKDAALLEAARANNMQEVSRLLSEGADVNAKHRLGWTALMVAAINENNSVVQVLLAAGADPNLGDDFSSVYKTAKEQGIHSLEVLITREDDFNNRLNNRASFKGCTALHYAVLADDYRTVKELLDGGANPLQRNEMGHTPLDYAREGEVMKLLRTSEAKYQEKQRKREAEERRRFPLEQRLKEHIIGQESAIATVGAAIRRKENGWYDEEHPLVFLFLGSSGIGKTELAKQTAKYMHKDAKKGFIRLDMSEFQERHEVAKFIGSPPGYVGHEEGGQLTKKLKQCPNAVVLFDEVDKAHPDVLTIMLQLFDEGRLTDGKGKTIDCKDAIFIMTSNVASDEIAQHALQLRQEALEMSRNRIAENLGDVQISDKITISKNFKENVIRPILKAHFRRDEFLGRINEIVYFLPFCHSELIQLVNKELNFWAKRAKQRHNITLLWDREVADVLVDGYNVHYGARSIKHEVERRVVNQLAAAYEQDLLPGGCTLRITVEDSDKQLLKSPELPSPQAEKRLPKLRLEIIDKDSKTRRLDIRAPLHPEKVCNTI
Question: Does B4 bind [6]?
Answer: Result: binds

B5: CLPB^Δ201-232 (insertion between AM2 and AM3 deleted) (enzyme)
chain: YSKSPSNKDAALLEAARANNMQEVSRLLSEGADVNAKHRLGWTALMVAAINRNNSVVQVLLAAGADPNLGDDFSSFKGCTALHYAVLADDYRTVKELLDGGANPLQRNEMGHTPLDYAREGEVMKLLRTSEAKYQEKQRKREAEERRRFPLEQRLKEHIIGQESAIATVGAAIRRKENGWYDEEHPLVFLFLGSSGIGKTELAKQTAKYMHKDAKKGFIRLDMSEFQERHEVAKFIGSPPGYVGHEEGGQLTKKLKQCPNAVVLFDEVDKAHPDVLTIMLQLFDEGRLTDGKGKTIDCKDAIFIMTSNVASDEIAQHALQLRQEALEMSRNRIAENLGDVQISDKITISKNFKENVIRPILKAHFRRDEFLGRINEIVYFLPFCHSELIQLVNKELNFWAKRAKQRHNITLLWDREVADVLVDGYNVHYGARSIKHEVERRVVNQLAAAYEQDLLPGGCTLRITVEDSDKQLLKSPELPSPQAEKRLPKLRLEIIDKDSKTRRLDIRAPLHPEKVCNTI
Question: Does B5 bind [8]?
Answer: Result: binds
